Test results as given in US20120135912A1 (PERSEID THERAPEUTICS, published 2012).

Experiments:
[1] = molecular target: T1, human VLA4-Fc (alpha4-Fc/beta1-Fc heterodimer) (human); assay: ELISA, VLA4-Fc coated, 1 mM MnCl2; from EC50 values; ELISA, VLA4-Fc coated on plate, 1 mM MnCl2 (activated VLA4); fold relative to Q38L-2D-VCAM-1
T1 construct: Soluble heterodimer from CHO cells, Protein A purified; also called VLA-Fc
Description: The relative binding affinities of various 2D-VCAM-1 variants to immobilized VLA4-Fc (α4-β1-Fc) heterodimer, relative to a control protein (e.g., Q38L-2D-VCAM-1 or to human 2D-VCAM-1), were deter using a solid-phase ELISA assay. […] The dilution series was transferred into the ELISA plate which was incubated at room temperature for 2 h and subsequently washed with TBS-T. Bound 2D-VCAM protein was detected by incubation with 0.5 ug/ml of biotinylated anti-human VCAM antibody (R&D Systems, Catalog No. BAF809) in TBS-TMC for 1 h at room temperature followed by a TBS-MT (TBS plus 1 mM MnCl2 and 0.02% TWEEN-20) wash and subsequent incubation with 1:2000 dilution of streptavidin-HRP (BD Biosciences, Catalog No. 554066) in TBS-TMC for 30 min at room temperature. […] Fold-improvement in binding was calculated relative to a control protein (e.g., Q38L-2D-VCAM-1 or human 2D-VCAM-1) assayed on the same plate.

[2] = molecular target: T1, human VLA4-Fc (alpha4-Fc/beta1-Fc …); assay: SPR (BIACORE), VLA4-Fc captured by anti-human IgG, 1 mM MnCl2, 1:1 Langmuir; standard BIACORE assay, first preparation (Table 5A); KD ratio relative to human 2D-VCAM-1
Description: The kinetic 2D-VCAM-1 assay measures binding kinetics of a dimeric ligand (e.g., VLA-Fc fusion protein or LPAM-1-Fc fusion protein) coated to sensor chips and monomeric analyte (e.g., 2D-VCAM-1 variant polypeptides) in the mobile phase. Goat anti-human IgG antibody (Jackson ImmunoResearch, Catalog No. 105-005-098) was immobilized on CM-5 sensor chips (GE Healthcare, Catalog No. BR-1000-14) according to the manufacturer's protocol. Antibody was diluted to 30 μg/ml in immobilization buffer (10 mM sodium acetate, pH 5.0 (GE Healthcare, Catalog No. BR-1003-51)). […] Un-reacted sites were quenched with 35 μl of 1 M ethanolamine-HCl pH 8.5 (GE Healthcare, Catalog No. BR-1000-50). This procedure typically yielded 15,000 response units (RU) of coupled antibody. VLA4-Fc or LPAM-1-Fc, prepared as described in Examples 3 and 4, respectively, were bound to antibody-coated sensor chips by injection of 20 μl of ligand solution (20 μg/ml protein in HBS-P-Mn buffer at a flow rate of 10 μl/min). Ligand capture levels were typically 200-300 RU. […] Typically, 8 dilutions of 2D-VCAM-1 variant polypeptides ranging from 150 nM to 0.069 nM were analyzed against a blank reference (HBS-P-Mn buffer alone).

T1 sequence (chain, as listed by the source limits assumed, form in doubt, chain 1 of 2): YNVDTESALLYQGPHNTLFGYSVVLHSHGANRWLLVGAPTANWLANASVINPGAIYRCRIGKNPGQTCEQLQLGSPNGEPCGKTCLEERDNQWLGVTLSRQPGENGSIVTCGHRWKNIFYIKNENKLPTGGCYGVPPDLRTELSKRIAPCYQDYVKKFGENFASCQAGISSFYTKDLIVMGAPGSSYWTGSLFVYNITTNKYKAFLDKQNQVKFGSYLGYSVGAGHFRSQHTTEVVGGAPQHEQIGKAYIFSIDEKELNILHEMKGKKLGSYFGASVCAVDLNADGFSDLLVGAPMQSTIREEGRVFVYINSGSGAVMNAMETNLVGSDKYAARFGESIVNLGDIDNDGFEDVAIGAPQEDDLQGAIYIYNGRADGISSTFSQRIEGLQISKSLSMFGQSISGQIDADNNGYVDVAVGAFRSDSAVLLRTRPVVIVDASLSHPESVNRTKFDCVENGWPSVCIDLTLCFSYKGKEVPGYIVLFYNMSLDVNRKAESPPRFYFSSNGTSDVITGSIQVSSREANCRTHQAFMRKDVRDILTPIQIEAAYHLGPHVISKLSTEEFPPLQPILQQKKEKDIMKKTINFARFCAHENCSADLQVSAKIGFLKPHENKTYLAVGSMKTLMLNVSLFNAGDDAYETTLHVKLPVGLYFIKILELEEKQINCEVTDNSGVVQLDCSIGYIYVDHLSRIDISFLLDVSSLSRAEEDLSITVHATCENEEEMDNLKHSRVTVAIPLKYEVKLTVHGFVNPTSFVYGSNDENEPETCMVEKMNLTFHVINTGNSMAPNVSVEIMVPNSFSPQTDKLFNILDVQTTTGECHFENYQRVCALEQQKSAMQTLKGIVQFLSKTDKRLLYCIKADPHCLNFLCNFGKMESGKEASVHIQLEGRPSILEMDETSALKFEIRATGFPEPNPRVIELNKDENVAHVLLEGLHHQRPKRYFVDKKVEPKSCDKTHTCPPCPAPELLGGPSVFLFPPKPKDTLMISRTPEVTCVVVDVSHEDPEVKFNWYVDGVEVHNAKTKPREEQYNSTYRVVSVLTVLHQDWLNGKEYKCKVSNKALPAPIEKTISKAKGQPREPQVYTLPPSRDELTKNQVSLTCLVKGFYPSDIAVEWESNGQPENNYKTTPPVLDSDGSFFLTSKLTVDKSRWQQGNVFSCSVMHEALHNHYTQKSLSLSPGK
T1 sequence (chain, as listed by the source limits assumed, form in doubt, chain 2 of 2): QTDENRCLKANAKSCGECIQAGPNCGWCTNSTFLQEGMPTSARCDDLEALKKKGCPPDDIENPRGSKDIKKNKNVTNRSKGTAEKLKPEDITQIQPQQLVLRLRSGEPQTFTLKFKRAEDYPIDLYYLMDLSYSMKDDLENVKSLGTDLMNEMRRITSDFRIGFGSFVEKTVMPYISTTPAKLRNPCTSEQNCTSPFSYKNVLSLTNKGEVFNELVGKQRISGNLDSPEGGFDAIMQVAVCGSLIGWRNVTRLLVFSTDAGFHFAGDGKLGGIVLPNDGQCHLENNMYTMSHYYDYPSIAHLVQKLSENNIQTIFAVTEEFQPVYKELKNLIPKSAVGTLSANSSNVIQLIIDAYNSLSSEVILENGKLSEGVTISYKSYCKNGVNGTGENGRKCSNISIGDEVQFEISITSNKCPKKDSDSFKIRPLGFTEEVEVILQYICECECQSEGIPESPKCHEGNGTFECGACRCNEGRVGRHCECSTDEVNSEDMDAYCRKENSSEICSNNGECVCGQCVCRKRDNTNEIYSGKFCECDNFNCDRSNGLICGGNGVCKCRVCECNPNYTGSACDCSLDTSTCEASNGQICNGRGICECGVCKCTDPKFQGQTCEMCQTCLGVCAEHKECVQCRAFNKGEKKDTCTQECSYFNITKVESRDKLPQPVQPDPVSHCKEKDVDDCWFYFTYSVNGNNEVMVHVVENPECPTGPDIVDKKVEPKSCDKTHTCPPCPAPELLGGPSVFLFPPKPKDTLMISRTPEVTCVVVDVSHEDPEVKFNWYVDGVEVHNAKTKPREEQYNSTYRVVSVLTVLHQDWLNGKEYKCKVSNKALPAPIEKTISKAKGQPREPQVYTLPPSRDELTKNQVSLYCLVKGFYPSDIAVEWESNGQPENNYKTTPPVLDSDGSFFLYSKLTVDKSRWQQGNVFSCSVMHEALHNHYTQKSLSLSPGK

fold-improvement in binding relative to Q38L-2D-VCAM-1 [1]: 37 fold | binding affinity for VLA4-Fc relative to human 2D-VCAM-1 [2]: 306 fold
B1: 2D-VCAM-1 variant Clone 146 (ligand, not shown: small tags and cut ends)
chain: FKIETTPESRYLAQIGDSVSLTCSTTGCESPLFFWRPLLDSPLNGKVTNEGTTSTLTMNPVSFGNEHSYLCTARCESRSLEKGIQVEIYSFPKDPEIHLSGPLEAGKPITVKCSVADVYPFDRLEIDLLKGDHLMKSQEFLEDADRKSLETKSLEVTFTPVIEDIGKVLVCRAKLHIDEMDSVPTVRQAVKELQVYISP
